biological target: endogenous SSTR 5 of MIN 6 cells (mouse) (UniProt O08858); test: cell-based or functional assay
Sequence (O08858 whole entry): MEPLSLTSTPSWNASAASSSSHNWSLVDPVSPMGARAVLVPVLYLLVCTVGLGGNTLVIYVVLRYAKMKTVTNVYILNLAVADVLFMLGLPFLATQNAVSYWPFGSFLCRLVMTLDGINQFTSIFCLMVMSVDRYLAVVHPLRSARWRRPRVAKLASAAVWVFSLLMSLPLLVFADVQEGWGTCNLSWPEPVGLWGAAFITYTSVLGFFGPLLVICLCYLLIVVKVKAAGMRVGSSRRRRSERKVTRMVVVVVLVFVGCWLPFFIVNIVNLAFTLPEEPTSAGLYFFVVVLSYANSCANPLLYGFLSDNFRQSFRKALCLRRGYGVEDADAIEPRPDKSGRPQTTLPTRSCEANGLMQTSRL

SRIF(1-14)-NH2 (peptide) was tested, and the Suppressibility of Insulin Secretion in MIN 6 Cells, Suppression rate of insulin secretion (%) relative to native SRIF was 100%.

biological target: endogenous GLP-1 receptor of MIN 6 cells (mouse) (UniProt O35659); test: cell-based or functional assay

First: [Ser8]-GLP-1(7-35)-GAm(1-46)-NH2 (peptide)
Second: [Ser8]-GLP-1(7-35)-GAm(17-46)-NH2 (peptide)
The Insulin Secretion Capacity of GLP-1 Peptide Complex in MIN 6 Cells (% of control), at 1000 pM of the first is lower: 18 % of control for the first, 39 % of control for the second.

Going from “[Ser8]-GLP-1(7-35)-GAm(21-46)-NH2 (peptide)” to “[Ser8]-GLP-1(7-35)-GAm(22-46)-NH2 (peptide)”, the Insulin Secretion Capacity of GLP-1 Peptide Complex in MIN 6 Cells (% of control), at 1000 pM rises from 45 % of control to 100 % of control.

First: [Ser8]-GLP-1(7-35)-GAm(25-46)-NH2 (peptide)
Second: [Ser8]-GLP-1(7-35)-GAm(27-46)-NH2 (peptide)
The Insulin Secretion Capacity of GLP-1 Peptide Complex in MIN 6 Cells (% of control), at 1000 pM of the first is lower: 104 % of control for the first, 106 % of control for the second.

Going from “[Ser8]-GLP-1(7-35)-GAm(28-42)-NH2 (peptide)” to [Ser8]-GLP-1(7-35)-GAm(28-44) (peptide), the Insulin Secretion Capacity of GLP-1 Peptide Complex in MIN 6 Cells (% of control), at 1000 pM rises from 105 % of control to 139 % of control.

First: [Ser8]-GLP-1(7-35)-GAm(28-44)-NH2 (peptide)
Second: [Ser8]-GLP-1(7-35)-GAm(30-42)-NH2 (peptide)
The Insulin Secretion Capacity of GLP-1 Peptide Complex in MIN 6 Cells (% of control), at 1000 pM of the first is higher: 105 % of control for the first, 85 % of control for the second.

Going from “[Ser8]-GLP-1(7-35)-GAm(31-44)-NH2 (peptide)” to “[Ser8]-GLP-1(7-35)-GAm(32-44)-NH2 (peptide)”, the Insulin Secretion Capacity of GLP-1 Peptide Complex in MIN 6 Cells (% of control), at 1000 pM rises from 83 % of control to 109 % of control.

First: [Ser8]-GLP-1(7-35)-GAm(33-44) (peptide)
Second: [Ser8]-GLP-1(7-35)-GAm(33-44)-NH2 (peptide)
The Insulin Secretion Capacity of GLP-1 Peptide Complex in MIN 6 Cells (% of control), at 1000 pM of the first is lower: 89 % of control for the first, 118 % of control for the second.

Going from “[Ser8]-GLP-1(7-35)-GAm(35-44)-NH2 (peptide)” to [Ser8]-GLP-1(7-35)-GAm(37-44) (peptide), the Insulin Secretion Capacity of GLP-1 Peptide Complex in MIN 6 Cells (% of control), at 1000 pM falls from 115 % of control to 98 % of control.

Compared with “[Ser8]-GLP-1(7-35)-GAm(37-44)-NH2 (peptide)”, “[Ser8]-GLP-1(7-35)-GAm(38-42)-NH2 (peptide)” is higher in Insulin Secretion Capacity of GLP-1 Peptide Complex in MIN 6 Cells (% of control), at 1000 pM: 82 % of control for the first, 125 % of control for the second.

With “[Ser8]-GLP-1(7-35)-GAm(38-44)-NH2 (peptide)” the Insulin Secretion Capacity of GLP-1 Peptide Complex in MIN 6 Cells (% of control), at 1000 pM was 120 % of control.

“[Ser8]-GLP-1(7-35)-GAm(1-46)-NH2 (peptide)” and “[Ser8]-GLP-1(7-35)-GAm(17-46)-NH2 (peptide)” cannot be ordered by Insulin Secretion Capacity of GLP-1 Peptide Complex in MIN 6 Cells (EC50 value): greater than 1 nM for the first, greater than 1 nM for the second.

In the case of “[Ser8]-GLP-1(7-35)-GAm(38-42)-NH2 (peptide)”, the Insulin Secretion Capacity of GLP-1 Peptide Complex in MIN 6 Cells (EC50 value) is reported as 0.5 nM.

biological target: endogenous VIP receptor of SUP-T1 cells (human); test: cell-based or functional assay

Compared with VIP(1-28)-GAm(28-44)-NH2 (peptide), VIP(1-28)-GAm(32-44)-NH2 (peptide) is higher in cAMP Productivity in SUP-T1 Cells, Activity Intensity (%) relative to native VIP: 67% for the first, 85% for the second.

For VIP(1-28)-GAm(37-44)-NH2 (peptide), the cAMP Productivity in SUP-T1 Cells, Activity Intensity (%) relative to native VIP was 81%.

Reference: patent US20130123460A1, “PEPTIDE FOR IMPROVING BIOSTABILITY OF BIOACTIVE SUBSTANCE, AND BIOACTIVE SUBSTANCE HAVING IMPROVED BIOSTABILITY” (priority 2010, published 2013)
